In IntAct's records for PubMed 15467741:

B1: Merlin (Homo sapiens), P35240-3 (parent)
chain: MAGAIASRMSFSSLKRKQPKTFTVRIVTMDAEMEFNCEMKWKGKDLFDLVCRTLGLRETWFFGLQYTIKDTVAWLKMDKKVLDHDVSKEEPVTFHFLAKFYPENAEEELVQEITQHLFFLQVKKQILDEKIYCPPEASVLLASYAVQAKYGDYDPSVHKRGFLAQEELLPKRVINLYQMTPEMWEERITAWYAEHRGRARDEAEMEYLKIAQDLEMYGVNYFAIRNKKGTELLLGVDALGLHIYDPENRLTPKISFPWNEIRNISYSDKEFTIKPLDKKIDVFKFNSSKLRVNKLILQLCIGNHDLFMRRRKADSLEVQQMKAQAREEKARKQMERQRLAREKQMREEAERTRDELERRLLQMKEEATMANEALMRSEETADLLAEKAQITEEEAKLLAQKAAEAEQEMQRIKATAIRTEEEKRLMEQKVLEAEVLALKMAEESERRAKEADQLKQDLQEAREAERRAKQKLLEIATKPTYPPMNPIPAPLPPDIPSFNLIGDSLSFDFKDTDMKRLSMEIEKEKVEYMEKSKHLQEQLNELKTEIEALKLKERETALDILHNENSDRGGSSKHNTIKKPQAQGRRPICI
partner: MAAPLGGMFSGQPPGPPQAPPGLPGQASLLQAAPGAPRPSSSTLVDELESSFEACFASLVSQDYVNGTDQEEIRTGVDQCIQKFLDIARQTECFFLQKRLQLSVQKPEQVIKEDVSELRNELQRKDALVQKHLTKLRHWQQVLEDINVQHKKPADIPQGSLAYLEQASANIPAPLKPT
B2: Merlin (Homo sapiens), P35240-1 (parent)
chain: MAGAIASRMSFSSLKRKQPKTFTVRIVTMDAEMEFNCEMKWKGKDLFDLVCRTLGLRETWFFGLQYTIKDTVAWLKMDKKVLDHDVSKEEPVTFHFLAKFYPENAEEELVQEITQHLFFLQVKKQILDEKIYCPPEASVLLASYAVQAKYGDYDPSVHKRGFLAQEELLPKRVINLYQMTPEMWEERITAWYAEHRGRARDEAEMEYLKIAQDLEMYGVNYFAIRNKKGTELLLGVDALGLHIYDPENRLTPKISFPWNEIRNISYSDKEFTIKPLDKKIDVFKFNSSKLRVNKLILQLCIGNHDLFMRRRKADSLEVQQMKAQAREEKARKQMERQRLAREKQMREEAERTRDELERRLLQMKEEATMANEALMRSEETADLLAEKAQITEEEAKLLAQKAAEAEQEMQRIKATAIRTEEEKRLMEQKVLEAEVLALKMAEESERRAKEADQLKQDLQEAREAERRAKQKLLEIATKPTYPPMNPIPAPLPPDIPSFNLIGDSLSFDFKDTDMKRLSMEIEKEKVEYMEKSKHLQEQLNELKTEIEALKLKERETALDILHNENSDRGGSSKHNTIKKLTLQSAKSRVAFFEEL
partner: B1 partner

Variants of: B1
Conditions: with med28_human MED28, Q9H204

| effect of a mutation on the interaction | Variant |
| --- | --- |
| increasing interaction | MAGAIASRMSFSSLKRKQPKTFTVRIVTMDAEMEFNCEMKWKGKDLFDLVCRTLGLRETWFFGLQYTIKDTVAWLKMDKKVLDHDVSKEEPVTFHFLAKFYPENAEEELVQEITQHLFFLQVKKQILDEKIYCPPEASVLLASYAVQAKYGDYDPSVHKRGFLAQEELLPKRVINLYQMTPEMWEERITAWYAEHRGRARDEAEMEYLKIAQDLEMYGVNYFAIRNKKGTELLLGVDALGLHIYDPENRLTPKISFPWNEIRNISYSDKEFTIKPLDKKIDVFKFNSSKLRVNKLILQLCIGNHDLFMRRRKADSLEVQQMKAQAREEKARKQMERQRLAREKQMREEAERTRDELERRLLQMKEEATMANEALMRSEETADLLAEKAQITEEEAKLLAQKAAEAEQEMQRIKATAIRTEEEKRLMEQKVLEAEVLALKMAEESERRAKEADQLKQDLQEAREAERRAKQKLLEIATKPTYPPMNPIPAPLPPDIPSFNLIGDSLSFDFKDTDMKRLAMEIEKEKVEYMEKSKHLQEQLNELKTEIEALKLKERETALDILHNENSDRGGSSKHNTIKKPQAQGRRPICI [S518A] |

Variants of: B2
Conditions: with med28_human MED28, Q9H204

| effect of a mutation on the interaction | Variant |
| --- | --- |
| increasing interaction | MAGAIASRMSFSSLKRKQPKTFTVRIVTMDAEMEFNCEMKWKGKDLFDLVCRTLGLRETWFFGLQYTIKDTVAWLKMDKKVLDHDVSKEEPVTFHFLAKFYPENAEEELVQEITQHLFFLQVKKQILDEKIYCPPEASVLLASYAVQAKYGDYDPSVHKRGFLAQEELLPKRVINLYQMTPEMWEERITAWYAEHRGRARDEAEMEYLKIAQDLEMYGVNYFAIRNKKGTELLLGVDALGLHIYDPENRLTPKISFPWNEIRNISYSDKEFTIKPLDKKIDVFKFNSSKLRVNKLILQLCIGNHDLFMRRRKADSLEVQQMKAQAREEKARKQMERQRLAREKQMREEAERTRDELERRLLQMKEEATMANEALMRSEETADLLAEKAQITEEEAKLLAQKAAEAEQEMQRIKATAIRTEEEKRLMEQKVLEAEVLALKMAEESERRAKEADQLKQDLQEAREAERRAKQKLLEIATKPTYPPMNPIPAPLPPDIPSFNLIGDSLSFDFKDTDMKRLAMEIEKEKVEYMEKSKHLQEQLNELKTEIEALKLKERETALDILHNENSDRGGSSKHNTIKKLTLQSAKSRVAFFEEL [S518A] |
